Legend:
human CD19 [1] = molecular target: T1, human CD19 (human, UniProt P15391 20-291, biotinylated in the Biacore assay of Table 11); experiment: SPR Biacore 8K, captured biotinylated CD19, scFv analyte
T1 construct: also called isolated CD19; Human CD19 Protein
T1 sequence (looked up): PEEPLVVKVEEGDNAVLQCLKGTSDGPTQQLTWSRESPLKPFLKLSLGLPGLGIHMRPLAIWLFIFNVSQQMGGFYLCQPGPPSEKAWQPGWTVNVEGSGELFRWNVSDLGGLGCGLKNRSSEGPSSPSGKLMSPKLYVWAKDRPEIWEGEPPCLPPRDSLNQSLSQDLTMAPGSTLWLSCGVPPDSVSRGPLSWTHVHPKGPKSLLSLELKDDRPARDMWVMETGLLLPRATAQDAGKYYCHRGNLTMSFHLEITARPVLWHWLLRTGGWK
Experimental: (§1) Additional kinetic analysis of the anti-CD19 VL-VH scFvs, with or without a disulfide bond introduced by Cys substitutions at position 44 of VH and position 100 of VL, was conducted by surface plasmon resonance (SPR). The scFv proteins were serially diluted and assessed at 25° C. in a HBS-EP+ running buffer system (10 mM HEPES pH 7.4, 150 mM NaCl, 3 mM EDTA, 0.05% Surfactant P20) using a Biacore 8K optical biosensor (Global Life Sciences Solutions USA, Marlborough, Mass.). The sample compartment was maintained at 10° C. for the duration of each experiment.
(§2) Each experiment cycle began with an injection (500 s at 2 μL/min) over flow cells 1 and 2 of a 1:20 solution of biotin CAPture reagent (Global Life Sciences Solutions USA) in running buffer. This was followed by an injection (300 s at 4.0 μL/min) of biotinylated CD-19 (40 nM) overflow cell 2. Upon capture of CD19 to the sensor surface, test scFvs (16.2 to 0.067 nM, 3-fold dilution in running buffer) was injected (300 s at 30 uL/min) over flow cells 1 and 2. The dissociation of the scFvs was monitored for a duration of 2564 s. Finally, an injection (90 s at 10 μL/min) of regeneration solution (6 M Guanidine-HCl in 0.25 M NaOH) overflow cells 1 and 2 was used to prepare the sensor surface for another cycle.

human CD19 [2] = molecular target: T1, human CD19; experiment: SPR Biacore 8K, captured biotinylated CD19, scFv with disulfide bond as analyte
Experimental: as §1, §2

protein A = protein A (UniProt P38507 37-327); experiment: Octet HTX (ForteBio), HCAb on AHC sensor, 1:1 fit
mouse serum albumin [3] = molecular target: T2, mouse serum albumin (mouse, UniProt P07724 25-608); experiment: Octet HTX (ForteBio), HCAb on AHC sensor, 1:1 fit
T2 construct: also called MSA

human serum albumin = molecular target: T3, human serum albumin (human, UniProt P02768 25-609); experiment: Octet HTX (ForteBio), HCAb on AHC sensor, 1:1 fit
T3 construct: also called HSA

cynomolgus serum albumin = cynomolgus serum albumin (cynomolgus, UniProt A2V9Z4 25-608); experiment: Octet HTX (ForteBio), HCAb on AHC sensor, 1:1 fit
mouse serum albumin [4] = molecular target: T2, mouse serum albumin; experiment: ratio of the Octet KD for mouse serum albumin to that for human serum albumin

T2 sequence (P07724 25-608 limits assumed): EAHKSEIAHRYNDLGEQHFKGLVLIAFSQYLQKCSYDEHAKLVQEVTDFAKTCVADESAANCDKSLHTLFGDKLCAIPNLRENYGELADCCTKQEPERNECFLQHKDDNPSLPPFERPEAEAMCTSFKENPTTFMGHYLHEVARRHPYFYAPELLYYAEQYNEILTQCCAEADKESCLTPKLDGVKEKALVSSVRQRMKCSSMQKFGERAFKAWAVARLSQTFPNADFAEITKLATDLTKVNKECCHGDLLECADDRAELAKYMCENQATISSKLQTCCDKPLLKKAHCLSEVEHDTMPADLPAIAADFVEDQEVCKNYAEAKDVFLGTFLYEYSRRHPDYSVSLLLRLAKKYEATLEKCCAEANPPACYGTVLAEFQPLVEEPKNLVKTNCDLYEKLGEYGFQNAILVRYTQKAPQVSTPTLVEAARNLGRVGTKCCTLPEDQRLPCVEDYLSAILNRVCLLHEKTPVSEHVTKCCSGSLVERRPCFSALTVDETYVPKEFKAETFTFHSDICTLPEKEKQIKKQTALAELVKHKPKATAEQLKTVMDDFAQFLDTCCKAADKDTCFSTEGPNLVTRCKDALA
Sequence of cynomolgus serum albumin (A2V9Z4 25-608 limits assumed): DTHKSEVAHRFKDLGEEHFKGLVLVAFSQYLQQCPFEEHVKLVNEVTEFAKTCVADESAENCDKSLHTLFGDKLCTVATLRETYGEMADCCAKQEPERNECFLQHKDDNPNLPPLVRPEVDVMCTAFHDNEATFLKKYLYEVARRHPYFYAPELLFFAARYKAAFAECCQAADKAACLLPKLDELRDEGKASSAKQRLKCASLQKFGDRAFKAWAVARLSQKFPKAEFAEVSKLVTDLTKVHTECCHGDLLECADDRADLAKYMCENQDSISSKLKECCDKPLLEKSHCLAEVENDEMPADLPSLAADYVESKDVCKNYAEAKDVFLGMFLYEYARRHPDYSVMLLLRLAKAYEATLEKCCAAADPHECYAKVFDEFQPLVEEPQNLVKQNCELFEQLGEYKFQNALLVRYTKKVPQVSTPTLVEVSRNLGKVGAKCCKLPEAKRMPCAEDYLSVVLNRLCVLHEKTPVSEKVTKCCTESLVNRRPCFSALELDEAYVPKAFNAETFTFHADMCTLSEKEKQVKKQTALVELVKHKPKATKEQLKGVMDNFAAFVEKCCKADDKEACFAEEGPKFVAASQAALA

B1: CNG-CD19-101 VL-VH scFv (scFv)
scFv: DIVMTQTPLSLSVTPGQPASISCKSSQSLETTTGTTYLNWYLQKPGQSPQLLIYRASKRFSGVPDRFSGSGSGTDFTLKISRVEAEDVGVYYCLQLLEDPYTFGQGTKLEIKGGGGSGGGGSGGGGSQVQLVQSGAEVKKPGASVKVSCKASGYDFTDYIMHWVRQAPGQGLEWMGYINPYNDGSKYTDKFQERVTMTSDTSISTAYMELSRLRSDDTAVYYCARGTYYYGPELFDYWGQGTTVTVSS
notes: scFv without the engineered disulfide
Human CD19 [1]
  Kd: 0.00673 nM
  koff: 2e-05 s⁻¹

B2: CNG-CD19-103 VL-VH scFv with disulfide bond (scFv)
chain: DIVMTQTPLSLSVTPGQPASISCKSSQSLETATGTTYLNWYLQKPGQSPQLLIYRVSRRFSGVPDRFSGSGSGTDFTLKISRVEAEDVGVYYCLQLLEDPYSFGCGTKLEIKGGGGSGGGGSGGGGSQVQLVQSGAEVKKPGASVKVSCKASGYTFTDYIMHWVRQAPGQCLEWMGYINPYNDGSKYTEKFQGRVTMTSDTSISTAYMELSRLRSDDTAVYYCARGTYYYGPQLFDYWGQGTTVTVSS
Human CD19 [2]
  Kd: 0.0178 nM
  koff: 4.85e-05 s⁻¹

B3: CNG-CD19-103 VL-VH scFv (scFv)
scFv: DIVMTQTPLSLSVTPGQPASISCKSSQSLETATGTTYLNWYLQKPGQSPQLLIYRVSRRFSGVPDRFSGSGSGTDFTLKISRVEAEDVGVYYCLQLLEDPYSFGQGTKLEIKGGGGSGGGGSGGGGSQVQLVQSGAEVKKPGASVKVSCKASGYTFTDYIMHWVRQAPGQGLEWMGYINPYNDGSKYTEKFQGRVTMTSDTSISTAYMELSRLRSDDTAVYYCARGTYYYGPQLFDYWGQGTTVTVSS
Human CD19 [1]
  Kd: 0.00991 nM
  koff: 2.41e-05 s⁻¹

B4: CNG-CD19-101 VL-VH scFv with disulfide bond (scFv)
scFv: DIVMTQTPLSLSVTPGQPASISCKSSQSLETTTGTTYLNWYLQKPGQSPQLLIYRASKRFSGVPDRFSGSGSGTDFTLKISRVEAEDVGVYYCLQLLEDPYTFGCGTKLEIKGGGGSGGGGSGGGGSQVQLVQSGAEVKKPGASVKVSCKASGYDFTDYIMHWVRQAPGQCLEWMGYINPYNDGSKYTDKFQERVTMTSDTSISTAYMELSRLRSDDTAVYYCARGTYYYGPELFDYWGQGTTVTVSS
notes: Cys at position 44 of VH and 100 of VL already in the entry; also called scFv with Cys substitutions
Human CD19 [2]
  Kd: 0.0139 nM
  koff: 4.88e-05 s⁻¹

B5: CNG-CD19-707 VL-VH scFv (scFv)
scFv: EIVLTQSPATLSLSPGERATLSCSASSSVGYMHWYQQKPGQAPRLLIYDTSKLASGIPARFSGSGSGTDFTLTISSLEPEDFAVYYCFQGSVYPFTFGQGTKLEIKGGGGSGGGGSGGGGSQVQLQESGPGLVKPSQTLSLTCTVSGGSISTSTMGVGWIRQHPGKGLEWIGFIWWDDDKRYNPNLKSRVTMSVDTSKNQFSLKLSSVTAADTAVYYCARMELWSYYFDPWGQGTLVTVSS
Human CD19 [1]
  Kd: 0.0122 nM
  koff: 2e-05 s⁻¹

B6: CNG-CD19-701 VL-VH scFv with disulfide bond (scFv)
chain: EIVLTQSPATLSLSPGERATLSCSASSSVGYMHWYQQKPGQAPRLLIYDTSKLASGIPARFSGSGSGTDFTLTISSLEPEDFAVYYCFQGSVYPFTFGCGTKLEIKGGGGSGGGGSGGGGSQVQLQESGPGLVKPSQTLSLTCTVSGGSISTSTMGVGWIRQHPGKCLEWIGFIWWDDDKRYNPNLKSRVTMSVDTSKNQFSLKLSSVTAADTAVYYCARMELWSYYFDYWGQGTLVTVSS
Human CD19 [2]
  Kd: 0.0141 nM
  koff: 2e-05 s⁻¹

B7: CNG-CD19-707 VL-VH scFv with disulfide bond (scFv)
chain: EIVLTQSPATLSLSPGERATLSCSASSSVGYMHWYQQKPGQAPRLLIYDTSKLASGIPARFSGSGSGTDFTLTISSLEPEDFAVYYCFQGSVYPFTFGCGTKLEIKGGGGSGGGGSGGGGSQVQLQESGPGLVKPSQTLSLTCTVSGGSISTSTMGVGWIRQHPGKCLEWIGFIWWDDDKRYNPNLKSRVTMSVDTSKNQFSLKLSSVTAADTAVYYCARMELWSYYFDPWGQGTLVTVSS
Human CD19 [2]
  Kd: 0.0117 nM
  koff: 2e-05 s⁻¹

B8: CNG-CD19-710 VL-VH scFv with disulfide bond (scFv)
chain: EIVLTQSPATLSLSPGERATLSCSASSSFSYMHWYQQKPGQAPRLLIYDTSKLASGIPARFSGSGSGTDFTLTISSLEPEDFAVYYCFQGSVYPFTFGCGTKLEIKGGGGSGGGGSGGGGSQVQLQESGPGLVKPSQTLSLTCTVSGVSISTSSMGVGWIRQHPGKCLEWIGHAWWDDDKRYNPALKSRVTISVDTSKNQFSLKLSSVTAADTAVYYCARMELWSYYFDPWGQGTLVTVSS
Human CD19 [2]
  Kd: 0.0213 nM
  koff: 2.54e-05 s⁻¹

B9: CNG-CD19-701 VL-VH scFv (scFv)
scFv: EIVLTQSPATLSLSPGERATLSCSASSSVGYMHWYQQKPGQAPRLLIYDTSKLASGIPARFSGSGSGTDFTLTISSLEPEDFAVYYCFQGSVYPFTFGQGTKLEIKGGGGSGGGGSGGGGSQVQLQESGPGLVKPSQTLSLTCTVSGGSISTSTMGVGWIRQHPGKGLEWIGFIWWDDDKRYNPNLKSRVTMSVDTSKNQFSLKLSSVTAADTAVYYCARMELWSYYFDYWGQGTLVTVSS
Human CD19 [1]
  Kd: 0.0148 nM
  koff: 2e-05 s⁻¹

B10: CNG-CD19-710 VL-VH scFv (scFv)
scFv: EIVLTQSPATLSLSPGERATLSCSASSSFSYMHWYQQKPGQAPRLLIYDTSKLASGIPARFSGSGSGTDFTLTISSLEPEDFAVYYCFQGSVYPFTFGQGTKLEIKGGGGSGGGGSGGGGSQVQLQESGPGLVKPSQTLSLTCTVSGVSISTSSMGVGWIRQHPGKGLEWIGHAWWDDDKRYNPALKSRVTISVDTSKNQFSLKLSSVTAADTAVYYCARMELWSYYFDPWGQGTLVTVSS
Human CD19 [1]
  Kd: 0.0218 nM
  koff: 2e-05 s⁻¹

B11: CNG-HSA-111 (VHH)
VHH: KVQLVESGGGLVQPGGSLRLSCAASGFTFSSFGMSWVRQAPGKGLEWVSSISGSGSDTLYADSVEGRFTISRDNSKNTLYLQMNSLRAEDTAVYYCTIGGSLKQSSQGTLVTVSS
Protein A
  Kd: 2.84 nM
  koff: 0.0002 s⁻¹
Mouse serum albumin [3]
  Kd: 10.2 nM
  koff: 0.00231 s⁻¹
Human serum albumin
  Kd: 8.35 nM
  koff: 0.00117 s⁻¹
Cynomolgus serum albumin
  Kd: 6.13 nM
  koff: 0.000884 s⁻¹
Mouse serum albumin [4]
  Ratio of MSA-KD to HSA-KD: 1.23

B12: CNG-HSA-102 (VHH)
VHH: KVQLLESGGGLVQPGGSLRLSCAASGFTFSSFGMSWVRQAPGKGLEWVSSISGSGSDTLYADSVRGRFTISRDNSKNTLYLQMNSLRPEDTAVYYCTIGGSLSPSSQGTLVTVSS
Protein A
  Kd: 1.7 nM
  koff: 0.0002 s⁻¹
Mouse serum albumin [3]
  Kd: 41.4 nM
  koff: 0.00738 s⁻¹
Human serum albumin
  Kd: 4.89 nM
  koff: 0.000748 s⁻¹
Cynomolgus serum albumin
  Kd: 3.65 nM
  koff: 0.000568 s⁻¹
Mouse serum albumin [4]
  Ratio of MSA-KD to HSA-KD: 8.46

B13: CNG-HSA-116 (VHH)
VHH: KVQLVESGGGLVQPGGSLRLSCAASGFTFSSFGMSWVRQAPGKGPEWVSSISGSGSDTLYADSVKGRFTISRDNSKNTLYLQMNSLRAEDTAVYYCTIGGSLRASSQGTLVTVSS
Protein A
  Kd: 1.75 nM
  koff: 0.0002 s⁻¹
Mouse serum albumin [3]
  Kd: 4.56 nM
  koff: 0.00108 s⁻¹
Human serum albumin
  Kd: 4.65 nM
  koff: 0.000699 s⁻¹
Cynomolgus serum albumin
  Kd: 3.85 nM
  koff: 0.000597 s⁻¹
Mouse serum albumin [4]
  Ratio of MSA-KD to HSA-KD: 0.98

B14: CNG-HSA-113 (VHH)
VHH: GVQLLESGGGLVQPGGSLRLSCAASGFTFSSFGMSWVRQAPGKGLEWVSSISGTGSDTLYADSVKGRFTISRDNSKNTLYLQMNSLRPEDTAVYYCTIGGSLRYSSQGTLVTVSS
Protein A
  Kd: 1.7 nM
  koff: 0.0002 s⁻¹
Mouse serum albumin [3]
  Kd: 52 nM
  koff: 0.0101 s⁻¹
Human serum albumin
  Kd: 15.4 nM
  koff: 0.00214 s⁻¹
Cynomolgus serum albumin
  Kd: 12.1 nM
  koff: 0.0017 s⁻¹
Mouse serum albumin [4]
  Ratio of MSA-KD to HSA-KD: 3.38

B15: CNG-HSA-112 (VHH)
VHH: KVQLLESGGGLVQPGGSLRLSCAASGFTFPSFGMSWVRQAPGKGLEWVSSISGSGSDTLYADSVKGRFTISRDNAKTTLYLQMNSLRPEDTAVYYCTIGGSVSKSSRGTLVTVSS
Protein A
  Kd: 3.44 nM
  koff: 0.000375 s⁻¹
Mouse serum albumin [3]
  Kd: 66.7 nM
  koff: 0.013 s⁻¹
Human serum albumin
  Kd: 8.45 nM
  koff: 0.00136 s⁻¹
Cynomolgus serum albumin
  Kd: 7.43 nM
  koff: 0.00115 s⁻¹
Mouse serum albumin [4]
  Ratio of MSA-KD to HSA-KD: 7.9

Reference: patent publication US20230037815A1 (CULLINAN THERAPEUTICS, published 2023)
